Our source for the mean fluorescence intensity of cells by FACS after 10 min exposure to the substrate values is patent US20070258954A1.

The experiment has as its target fluorogenic OmpT peptide substrate (FIG. 10). Put plainly: cell-based or functional assay.

Substance “OmpT protease of E. coli, expressed from multicopy plasmid pML19 in UT5600 cells (from UniProt P09169 21-317) (enzyme)” yielded a mean fluorescence intensity of cells by FACS after 10 min exposure to the substrate of 30 fold.
